# From patent publication US8663616B2, “Enzymatic peracid generation for use in oral care products” (E I du Pont de Nemours and Company, priority 2010, dated 2014)
# B1: EZ-7: C277S-link1-DenP308-H6, SEQ ID NO: 429 (protein)
# chain: MAFFDLPLEELKKYRPERYEEKDFDEFWEETLAESEKFPLDPVFERMESHLKTVEAYDVTFSGYRGQRIKGWLLVPKLEEEKLPCVVQYIGYNGGRGFPHDWLFWPSMGYICFVMDTRGQGSGWLKGDTPDYPEGPVDPQYPGFMTRGILDPRTYYYRRVFTDAVRAVEAAASFPQVDQERIVIAGGSQGGGIALAVSALSKKAKALLCDVPFLCHFRRAVQLVDTHPYAEITNFLKTHRDKEEIVFRTLSYFDGVNFAARAKIPALFSVGLMDNISPPSTVFAAYNYYAGPKEIRIYPYNNHEGGGSFQAVEQVKFLKKLFEKGGPGSGGAGSPGSAGGPGSTKPPRTPTANTSRPHHNFGSGGGGSPHHHHHH
# B2: EZ-1: Thermotoga maritima acetyl xylan esterase variant C277S, untargeted perhydrolase, SEQ ID NO: 424 (protein, listed as Thermotoga maritima)
# chain: MAFFDLPLEELKKYRPERYEEKDFDEFWEETLAESEKFPLDPVFERMESHLKTVEAYDVTFSGYRGQRIKGWLLVPKLEEEKLPCVVQYIGYNGGRGFPHDWLFWPSMGYICFVMDTRGQGSGWLKGDTPDYPEGPVDPQYPGFMTRGILDPRTYYYRRVFTDAVRAVEAAASFPQVDQERIVIAGGSQGGGIALAVSALSKKAKALLCDVPFLCHFRRAVQLVDTHPYAEITNFLKTHRDKEEIVFRTLSYFDGVNFAARAKIPALFSVGLMDNISPPSTVFAAYNYYAGPKEIRIYPYNNHEGGGSFQAVEQVKFLKKLFEKG
# Key:
# [1] = Two-step bleaching of coffee-tea stained bovine enamel, repeated rounds (Example 17); parameters: scale not given here; details: for Whiteness Index Rd1: after round 1 of the 2-step process; for Whiteness Index Rd2: after round 2; for Whiteness Index Rd3: after round 3; for Whiteness Index Rd4: after round 4; for Whiteness Index Rd5: after round 5; for ΔWI: before to round 5; for Whiteness Index Before: two-step: 20 μM enzyme (or buffer) 10 min 37° C., rinsed, then 100 mM triacetin, 100 mM H2O2 10 min 37° C., before treatment
# Description: Bovine enamel incisors were prepared as indicated in Example 1. The stained enamel blocks were embedded in SILLY PUTTY® (Crayola LLC, Easton, Pa.) filled well, a 24-well plate to protect the dentin backside from solution exposure. A solution of 20 μM of each enzyme in 10 mM phosphate buffer, pH 7.2 was prepared and 500 μL of the enzyme solution was added to each enamel blocks and incubated for 10 min at 37° C. The enamel block was then rinsed three times with an additional 500 μL of buffer each time. The enamel blocks were transferred and embedded in a fresh putty well for the whitening process. A solution (200 μL) containing 100 mM phosphate buffer, 100 mM triacetin, 100 mM H2O2, pH 7.2 was added to the enamel and incubated for 10 min at 37° C. The enamel block was removed from the well using forceps, then rinsed and stored in a 1.5 mL of water filled well for color measurements. The 2-step process was repeated 5 times (50 min total). Each sample data point represents 2 repeats of independent enamel blocks.
# [2] = Perhydrolase activity in solution, ABTS detection of peracetic acid (Example 7); assay type: biochemical; details: 10 μL of 0.625 μg/mL enzyme, triacetin, H2O2, pH 7.2, 5 min
# Description: (§1) The detection of peracetic acid followed the method described in Pinkernell et. al. (Analyst, 1997, 122, 567) using colorimetric detection of 2,2′-azino-bis(3-ethylbenzothiazoline(-6-sulfonate (ABTS) oxidation by peracetic acid. Following the formation of peracetic acid with the addition of triacetin and hydrogen peroxide, 90 μL of solution was added to 10 μL of 0.1 M H3PO4 in a well plate. 50 μL of 1 M acetic acid, 50 μL of 0.5 g/L ABTS and 50 μL of 0.002 g/L of KI was added. The solution was allowed to develop for 5 min. The absorbance of the solution was measured at 405 nm using a microplate reader. The peracetic acid concentration was calculated based on a standard curve developed simultaneously using peracetic acid reagent solution.
# The enzyme activity in solution was measured by making a solution of 0.625 μg/mL of each enzyme in 50 mM phosphate buffer, pH 7.2. 10 μL of enzyme solution was mixed with 90 μL buffer, 30 μL of 3% triacetin in water, 30 μL of 30 mM H2O2. The solution was incubated for 5 min. A 90 μL aliquot was removed for detection via ABTS oxidation as noted above.
# [3] = Maximum peracetic acid by targeted and untargeted CE-7 perhydrolase with propylene glycol diacetate; assay type: biochemical; details: substrate propylene glycol diacetate; same reaction conditions as Table 20
# Description: These ester substrates were tested for peracetic acid production using a targeted C277S perhydrolase variant, EZ-7 under the same reaction conditions used to generate date for Table 20. Peracetic acid production using propylene glycol diacetate or sucrose octaacetate with the EZ-7 perhydrolase system is shown in Table 21.
# [4] = Perhydrolase activity of enzyme bound to hydroxyapatite discs, ABTS (Example 7); assay type: biochemical; details: for Avg Absorbance Background subtract: background = no enzyme, no HAP (0.775); for Avg Absorbance at 5 min: discs incubated in 20 μM enzyme, 6 washes, 0.346% triacetin, 3.46 mM H2O2, A405; for PAA conc μM per disc: enzyme bound to hydroxyapatite disc, 5 min, no enzyme control 1.2
# Description: as §1
# The perhydrolase activity of the fusions once bound to HAP discs surfaces was determined with the same ABTS method. Hydroxyapatite discs (HiMed Inc, Old Bethpage, N.Y.; 5 mm dia.×1.8 mm thick) were incubated in 20 μM enzyme solution (50 mM potassium phosphate buffer pH 7.2) for 60 min followed by 6 times of washes (50 mM potassium phosphate buffer pH 7.2). The discs with enzyme adsorbed were transferred to new wells and 200 μL of phosphate buffer (10 mM pH 7.2), 30 μL of 3% triacetin (final concentration of 0.346%) and 30 μL of 30 mM H2O2 (final concentration of 3.46 mM) were added. The solution was allowed to incubate at room temperature for 5 min. 90 μL of solution was pipetted to a new well containing 10 μL of 100 mM H3PO4. 50 μL of acetic acid, 50 μL KI, 50 μL ABTS were added as described above. The solution was developed for 5 min at room temperature and read at A405 nm.
# [5] = T. maritima C277S/C277T constructs, peracetic acid when bound to bovine enamel (Example 11); assay type: biochemical; details: bovine enamel exposed to 10 μM enzyme, 4 washes; 100 mM triacetin, 100 mM H2O2, 30 min, 37° C.; no enzyme 570
# Procedure, shortened: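 Enamel blocks equilibrated in 10 mM potassium phosphate, pH 7.2, were incubated with 10 μM enzyme for 30 min at 37° C and washed free of unbound enzyme. Bound enzyme then reacted 30 min at 37° C with 100 mM H2O2 and 100 mM triacetin in 100 mM phosphate, pH 7.2. Peracetic acid was measured by ABTS oxidation (A405) against a standard curve; mean of 3 blocks.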
# [6] = Retention of perhydrolase on hydroxyapatite (SDS-PAGE band strength); assay type: binding; details: for Unbound (relative band strength): 10 μM enzyme, 0.5% hydroxyapatite, pH 7.2; for Unbound (relative band strength) / HAP Particles (relative band strength) / Wash1 (relative band strength) / Wash2 (relative band strength): relative to enzyme input = 1; for HAP Particles (relative band strength): enzyme retained on particles after washes
# Procedure, shortened: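 Enzyme at 10 μM final was incubated 30 min with 0.5% hydroxyapatite nanoparticles in 10 mM phosphate pH 7.2, then centrifuged and washed three times. Input, wash supernatants and particles were run on SDS-PAGE with Coomassie-type staining; band strength scored relative to input (=1).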
Molecule,Whiteness Index Rd1 [1],Whiteness Index Rd2 [1],Whiteness Index Rd3 [1],Whiteness Index Rd4 [1],Whiteness Index Rd5 [1],ΔWI [1],Whiteness Index Before [1],Avg Absorbance 405 nm Background subtracted [2],"Maximum Peracetic Acid (ppm), Propylene glycol diacetate [3] [ppm]",Avg Absorbance Background subtract [4],Avg Absorbance at 5 min [4],PAA conc μM per disc [4] [μM per disc],activity when bound to hydroxyapatite (in words) ([4]; with addition of triacetin and hydrogen peroxide),Peracetic acid (ppm) On Enamel [5] [ppm],Unbound (relative band strength) [6],HAP Particles (relative band strength) [6],Wash1 (relative band strength) [6],Wash2 (relative band strength) [6],binding to / retention on hydroxyapatite (in words) ([6]; after washes)
B1,−106.7,−96.0,−88.7,−85.7,−76.6,44.2,−120.8,1.619,2109,1.450,1.45,23.5,active enzymes when bound to hydroxyapatite,1040,0.5,0.5,0.01,0.0,–
B2,−129.5,−129.5,−129.2,−125.1,−122.1,17.9,−140.0,1.830,2165,0.126,0.901,3.5,–,628,0.98,0.01,0.01,0.0,does not bind to hydroxyapatite
